Results as given in patent US20240066131A1 (Protagonist Therapeutics, Inc., priority 2020, published 2024).
Starred links: 1 amine or outer side, 2 acyl side, 3 side chain; linkers in the order of their positions; H or OH if unused. Positions of bridges follow the written chain, without caps; N, C: chain ends. Non-standard residues stand in square brackets, D forms with d. Groups on a side chain read outwards from the residue. Primed or numbered codes have the meaning given here. *: point of attachment. N‑(CH2CH2C(Ph)2H)Gly = N-substituted glycine carrying a 3,3-diphenylpropyl group, O=C(CN(CCC(c1ccccc1)c1ccccc1)[*:1])[*:2]; ButanoicP = (R)-4-(pyrrolidin-2-yl)butanoic acid, O=C(CCC[C@@H]1CCCN1[*:1])[*:2]; Dip = N[C@H](C(=O)O)C(c1ccccc1)c1ccccc1; N(isopentyl)Gly′ = not defined here; Palmitoyl = CCCCCCCCCCCCCCCC(=O)*; β3hF = N[C@H](CC(=O)O)Cc1ccccc1; PEG4 = NCCOCCOCCOCCOCCC(=O)O; Isovaleryl = CC(C)CC(=O)*; IDA = iminodiacetic acid; Ahx = NCCCCCC(=O)O

T1: human ferroportin (SLC40A1) fused in frame with GFP, stably expressed in HEK293 cells (human, UniProt Q9NP59 1-571)
T1 sequence (looked up): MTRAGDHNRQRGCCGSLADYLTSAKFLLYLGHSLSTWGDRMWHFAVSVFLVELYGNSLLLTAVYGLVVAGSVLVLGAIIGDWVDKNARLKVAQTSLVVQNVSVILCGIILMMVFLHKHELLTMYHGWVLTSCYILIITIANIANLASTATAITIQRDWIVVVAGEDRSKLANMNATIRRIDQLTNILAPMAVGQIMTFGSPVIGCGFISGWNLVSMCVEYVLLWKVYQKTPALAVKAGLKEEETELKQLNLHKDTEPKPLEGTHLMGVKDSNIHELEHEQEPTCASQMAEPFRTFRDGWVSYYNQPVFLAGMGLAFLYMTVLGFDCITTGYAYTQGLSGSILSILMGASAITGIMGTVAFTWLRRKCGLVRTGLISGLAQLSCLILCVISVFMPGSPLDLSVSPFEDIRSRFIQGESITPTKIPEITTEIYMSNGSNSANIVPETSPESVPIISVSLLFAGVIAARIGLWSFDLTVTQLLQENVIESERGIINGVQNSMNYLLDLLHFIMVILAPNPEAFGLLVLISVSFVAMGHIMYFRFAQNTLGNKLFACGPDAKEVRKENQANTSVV

B1: Isovaleric Acid-A-T-H-K-P-E-I-[Lys(Ahx_Palm)]-[bhPhe]-R-NH2; (K and E cyclized) (peptide)
peptide: Isovaleryl-ATHKPEIK([Ahx-Palmitoyl])[β3hF]R-NH2
modifications: lactam 4-6
SMILES: CCCCCCCCCCCCCCCC(=O)NCCCCCC(=O)NCCCC[C@H](NC(=O)[C@@H](NC(=O)[C@@H]1CCC(=O)NCCCC[C@H](NC(=O)[C@H](Cc2c[nH]cn2)NC(=O)[C@@H](NC(=O)[C@H](C)NC(=O)CC(C)C)[C@@H](C)O)C(=O)N2CCC[C@H]2C(=O)N1)[C@@H](C)CC)C(=O)N[C@H](CC(=O)N[C@@H](CCCNC(=N)N)C(N)=O)Cc1ccccc1
B2: Isovaleric Acid-A-T-H-E-P-K-I-[Lys(Ahx_Palm)]-[bhPhe]-R-NH2; (E and K cyclized) (peptide)
peptide: Isovaleryl-ATHEPKIK([Ahx-Palmitoyl])[β3hF]R-NH2
modifications: lactam 4-6
SMILES: CCCCCCCCCCCCCCCC(=O)NCCCCCC(=O)NCCCC[C@H](NC(=O)[C@@H](NC(=O)[C@@H]1CCCCNC(=O)CC[C@H](NC(=O)[C@H](Cc2c[nH]cn2)NC(=O)[C@@H](NC(=O)[C@H](C)NC(=O)CC(C)C)[C@@H](C)O)C(=O)N2CCC[C@H]2C(=O)N1)[C@@H](C)CC)C(=O)N[C@H](CC(=O)N[C@@H](CCCNC(=N)N)C(N)=O)Cc1ccccc1
B3: Isovaleric Acid-E-T-H-[Dpa]-P-A-I-[Lys(2PEG4_Palm)]-[bhPhe]-NH2 (peptide)
peptide: Isovaleryl-ETH[Dip]PAIK([PEG4-Palmitoyl])[β3hF]-NH2
SMILES: CCCCCCCCCCCCCCCC(=O)NCCOCCOCCOCCOCCC(=O)NCCCC[C@H](NC(=O)[C@@H](NC(=O)[C@H](C)NC(=O)[C@@H]1CCCN1C(=O)[C@@H](NC(=O)[C@H](Cc1c[nH]cn1)NC(=O)[C@@H](NC(=O)[C@H](CCC(=O)O)NC(=O)CC(C)C)[C@@H](C)O)C(c1ccccc1)c1ccccc1)[C@@H](C)CC)C(=O)N[C@H](CC(N)=O)Cc1ccccc1
B4: Isovaleric Acid-E-T-H-[Dpa]-P-A-I-[(D)Lys]-[bhPhe]-[Lys(Ahx_Palm)]-[(D)Lys]-NH2 (peptide)
peptide: Isovaleryl-ETH[Dip]PAI[dK][β3hF]K([Ahx-Palmitoyl])[dK]-NH2
SMILES: CCCCCCCCCCCCCCCC(=O)NCCCCCC(=O)NCCCC[C@H](NC(=O)C[C@H](Cc1ccccc1)NC(=O)[C@@H](CCCCN)NC(=O)[C@@H](NC(=O)[C@H](C)NC(=O)[C@@H]1CCCN1C(=O)[C@@H](NC(=O)[C@H](Cc1c[nH]cn1)NC(=O)[C@@H](NC(=O)[C@H](CCC(=O)O)NC(=O)CC(C)C)[C@@H](C)O)C(c1ccccc1)c1ccccc1)[C@@H](C)CC)C(=O)N[C@H](CCCCN)C(N)=O
B5: Isovaleric Acid-A-T-H-[Dpa]-P-K-I-E-[bhPhe]-[Lys(Ahx_Palm)]-R-NH2; (K and E cyclized) (peptide)
peptide: Isovaleryl-ATH[Dip]PKIE[β3hF]K([Ahx-Palmitoyl])R-NH2
modifications: lactam 6-8
SMILES: CCCCCCCCCCCCCCCC(=O)NCCCCCC(=O)NCCCC[C@H](NC(=O)C[C@H](Cc1ccccc1)NC(=O)[C@@H]1CCC(=O)NCCCC[C@H](NC(=O)[C@@H]2CCCN2C(=O)[C@@H](NC(=O)[C@H](Cc2c[nH]cn2)NC(=O)[C@@H](NC(=O)[C@H](C)NC(=O)CC(C)C)[C@@H](C)O)C(c2ccccc2)c2ccccc2)C(=O)N[C@@H]([C@@H](C)CC)C(=O)N1)C(=O)N[C@@H](CCCNC(=N)N)C(N)=O
B6: Isovaleric Acid-E-T-H-[Dpa]-P-A-I-[Lys(Ahx_Palm)]-L-NH2 (peptide)
peptide: Isovaleryl-ETH[Dip]PAIK([Ahx-Palmitoyl])L-NH2
SMILES: CCCCCCCCCCCCCCCC(=O)NCCCCCC(=O)NCCCC[C@H](NC(=O)[C@@H](NC(=O)[C@H](C)NC(=O)[C@@H]1CCCN1C(=O)[C@@H](NC(=O)[C@H](Cc1c[nH]cn1)NC(=O)[C@@H](NC(=O)[C@H](CCC(=O)O)NC(=O)CC(C)C)[C@@H](C)O)C(c1ccccc1)c1ccccc1)[C@@H](C)CC)C(=O)N[C@@H](CC(C)C)C(N)=O
B7: Isovaleric Acid-E-T-H-[Dpa]-P-L-I-[Lys(Ahx_Palm)]-L-NH2 (peptide)
peptide: Isovaleryl-ETH[Dip]PLIK([Ahx-Palmitoyl])L-NH2
SMILES: CCCCCCCCCCCCCCCC(=O)NCCCCCC(=O)NCCCC[C@H](NC(=O)[C@@H](NC(=O)[C@H](CC(C)C)NC(=O)[C@@H]1CCCN1C(=O)[C@@H](NC(=O)[C@H](Cc1c[nH]cn1)NC(=O)[C@@H](NC(=O)[C@H](CCC(=O)O)NC(=O)CC(C)C)[C@@H](C)O)C(c1ccccc1)c1ccccc1)[C@@H](C)CC)C(=O)N[C@@H](CC(C)C)C(N)=O
B8: Isovaleric Acid-[Lys(Ahx_Palm)]-T-H-[Dpa]-P-A-I-[(D)Lys]-[bhPhe]-NH2; 2 (peptide)
peptide: Isovaleryl-K([Ahx-Palmitoyl])TH[Dip]PAI[dK][β3hF]-NH2
SMILES: CCCCCCCCCCCCCCCC(=O)NCCCCCC(=O)NCCCC[C@H](NC(=O)CC(C)C)C(=O)N[C@H](C(=O)N[C@@H](Cc1c[nH]cn1)C(=O)N[C@H](C(=O)N1CCC[C@H]1C(=O)N[C@@H](C)C(=O)N[C@H](C(=O)N[C@H](CCCCN)C(=O)N[C@H](CC(N)=O)Cc1ccccc1)[C@@H](C)CC)C(c1ccccc1)c1ccccc1)[C@@H](C)O
B9: Isovaleric Acid-[Lys(Ahx_Palm)]-T-H-[Dpa]-P-A-I-[(D)Lys]-[bhPhe]-NH2; 1 (peptide)
peptide: Isovaleryl-K([Ahx-Palmitoyl])TH[Dip]PAI[dK][β3hF]-NH2
SMILES: CCCCCCCCCCCCCCCC(=O)NCCCCCC(=O)NCCCC[C@H](NC(=O)CC(C)C)C(=O)N[C@H](C(=O)N[C@@H](Cc1c[nH]cn1)C(=O)N[C@H](C(=O)N1CCC[C@H]1C(=O)N[C@@H](C)C(=O)N[C@H](C(=O)N[C@H](CCCCN)C(=O)N[C@H](CC(N)=O)Cc1ccccc1)[C@@H](C)CC)C(c1ccccc1)c1ccccc1)[C@@H](C)O
B10: Ac-[Lys(Ahx_Palm)]-T-H-[Dpa]-P-A-I-[(D)Lys]-[bhPhe]-NH2 (peptide)
peptide: Ac-K([Ahx-Palmitoyl])TH[Dip]PAI[dK][β3hF]-NH2
SMILES: CCCCCCCCCCCCCCCC(=O)NCCCCCC(=O)NCCCC[C@H](NC(C)=O)C(=O)N[C@H](C(=O)N[C@@H](Cc1c[nH]cn1)C(=O)N[C@H](C(=O)N1CCC[C@H]1C(=O)N[C@@H](C)C(=O)N[C@H](C(=O)N[C@H](CCCCN)C(=O)N[C@H](CC(N)=O)Cc1ccccc1)[C@@H](C)CC)C(c1ccccc1)c1ccccc1)[C@@H](C)O

Biological target: T1, human ferroportin (SLC40A1) fused in …
Experiment: cell-based or functional assay

FPN EC50	Binder
> 3000 nM	Succinic_Acid-ETH[Dip]PIIK(Ac)[β3hF]-NH2 [[Succinic_Acid]-E-T-H-[Dpa]-P-I-I-[Lys(Ac)]-[bhPhe]-NH2]
> 3000 nM	B1
> 3000 nM	Glutaric_Acid-ETH[Dip]PIIK(Ac)[β3hF]-NH2 [[Glutaric_Acid]-E-T-H-[Dpa]-P-I-I-[Lys(Ac)]-[bhPhe]-NH2]
> 3000 nM	B2
> 5000 nM	{Isophthalic Acid}-ETH[Dip]PIIK(Ac)[β3hF]-NH2 [[Isophthalic Acid]-E-T-H-[Dpa]-P-I-I-[Lys(Ac)]-[bhPhe]-NH2]
13 nM	Isovaleryl-ETH[Dip]PA[N(isopentyl)Gly′]K([Ahx-Palmitoyl])[β3hF]-NH2 [Isovaleric Acid-E-T-H-[Dpa]-P-A-[N-(isopenty1)Gly]-[Lys(Ahx_Palm)]-[bhPhe]-NH2]
> 3000 nM	Isovaleryl-ET[N‑(CH2CH2-imidazol4-yl)Gly][Dip]PAIK([Ahx-Palmitoyl])[β3hF]-NH2 [Isovaleric Acid-E-T-[N-(CH2CH2-imidazol4-yl)Gly]-[Dpa]-P-A-I-[Lys(Ahx_Palm)]-[bhPhe]-NH2]
> 5000 nM	Pimelic_Acid-ETH[Dip]PIIK(Ac)[β3hF]-NH2 [[Pimelic_Acid]-E-T-H-[Dpa]-P-I-I-[Lys(Ac)]-[bhPhe]-NH2]
2230 nM	Isovaleryl-E[N‑(CH2CH2OH)Gly]H[Dip]PAIK([Ahx-Palmitoyl])[β3hF]-NH2 [Isovaleric Acid-E-[N-(CH2CH2OH)Gly]-H-[Dpa]-P-A-I-[Lys(Ahx_Palm)]-[bhPhe]-NH2]
> 3000 nM	Isovaleryl-ETH[N‑(CH2CH2C(Ph)2H)Gly]PAIK([Ahx-Palmitoyl])[β3hF]-NH2 [Isovaleric Acid-E-T-H-[N-(CH2CH2C(Ph)2H)Gly]-P-A-I-[Lys(Ahx_Palm)]-[bhPhe]-NH2]
1450 nM	Isovaleryl-[dE]TH[Dip]PIIK(Ac)[β3hF]-NH2 [Isovaleric Acid-[(D)Glu]-T-H-[Dpa]-P-I-I-[Lys(Ac)]-[bhPhe]-NH2]
> 5000 nM	{IDA}-ETH[Dip]PIIK(Ac)[β3hF]-NH2 [[IDA]-E-T-H-[Dpa]-P-I-I-[Lys(Ac)]-[bhPhe]-NH2]
20.5 nM	Isovaleryl-ETH[Dip][ButanoicP]K([Ahx-Palmitoyl])[β3hF]-NH2 [Isovaleric Acid-E-T-H-[Dpa]-[ButanoicP]-[Lys(Ahx_Palm)]-[bhPhe]-NH2]
31.9 nM	Isovaleryl-ETH[Dip]PAIK([Ahx-Palmitoyl])[N‑(CH2CH2Ph)Gly]-NH2 [Isovaleric Acid-E-T-H-[Dpa]-P-A-I-[Lys(Ahx_Palm)]-[N-(CH2CH2Ph)Gly]-NH2]
32.7 nM	B3
202 nM	Isovaleryl-[N‑(CH2CH2CH2CO2H)Gly]TH[Dip]PAIK([Ahx-Palmitoyl])[β3hF]-NH2 [Isovaleric Acid-[N-(CH2CH2CH2CO2H)Gly]-T-H-[Dpa]-P-A-I-[Lys(Ahx_Palm)]-[bhPhe]-NH2]
65.9 nM	Isovaleryl-ETH[Dip]P[N(Et)Gly]IK([Ahx-Palmitoyl])[β3hF]-NH2 [Isovaleric Acid-E-T-H-[Dpa]-P-[N-(Et)Gly]-I-[Lys(Ahx_Palm)]-[bhPhe]-NH2]
5740 nM	{3,3,3‑Trifluoro propionic acid}-ETH[Dip]PIIK(Ac)[β3hF]-NH2 [[3,3,3-Trifluoro propionic acid]-E-T-H-[Dpa]-P-I-I-[Lys(Ac)]-[bhPhe]-NH2]
45.5 nM	B4
90.7 nM	B5
> 3000 nM	Gallic_Acid-ETH[Dip]PIIK(Ac)[β3hF]-NH2 [[Gallic_Acid]-E-T-H-[Dpa]-P-I-I-[Lys(Ac)]-[bhPhe]-NH2]
2080 nM	{(3-Trifluoromethyl)butyric acid}-ETH[Dip]PIIK(Ac)[β3hF]-NH2 [[(3-Trifluoromethyl)butyric acid]-E-T-H-[Dpa]-P-I-I-[Lys(Ac)]-[bhPhe]-NH2]

Biological target: T1, human ferroportin (SLC40A1) fused in …
Experiment: cell-based or functional assay
Remark: another data set of the same source

FPN IC50	Binder
82 nM	B6
37.4 nM	B7
654 nM	B8
598 nM	B9
> 3000 nM	B10
